Consider one protein from publication PMC4856307, “A Hidden Transhydrogen Activity of a FMN-Bound Diaphorase under Anaerobic Conditions” (PLoS ONE, 2016).

What all share (experiment): purified protein
Assay type in all cases: biochemical, Geobacillus stearothermophilus

Substrate in series [1]: NC(=O)C1=CN([C@@H]2O[C@H](COP(=O)(O)OP(=O)(O)OC[C@H]3O[C@@H](n4cnc5c(N)ncnc54)[C@H](OP(=O)(O)O)[C@@H]3O)[C@@H](O)[C@H]2O)C=CC1
As to conditions: acceptor thio-NAD+; anaerobic (argon); 1x TBS pH 7.4, room temperature; pH 7.4.

Substrate in series [2]: NC(=S)c1ccc[n+]([C@@H]2O[C@H](COP(=O)([O-])OP(=O)(O)OC[C@H]3O[C@@H](n4cnc5c(N)ncnc54)[C@H](O)[C@@H]3O)[C@@H](O)[C@H]2O)c1
The conditions noted are these: hydride donor NAD(P)H; anaerobic (argon).

Substrate in series [3]: NC(=O)C1=CN([C@@H]2O[C@H](COP(=O)(O)OP(=O)(O)OC[C@H]3O[C@@H](n4cnc5c(N)ncnc54)[C@H](O)[C@@H]3O)[C@@H](O)[C@H]2O)C=CC1
As to conditions: acceptor thio-NAD+; anaerobic (argon); 1x TBS pH 7.4, room temperature; pH 7.4.

Substrate in series [4]: NC(=S)c1ccc[n+]([C@@H]2O[C@H](COP(=O)(O)OP(=O)(O)OC[C@H]3O[C@@H](n4cnc5c(N)ncnc54)[C@H](OP(=O)(O)O)[C@@H]3O)[C@@H](O)[C@H]2O)c1
As to conditions: hydride donor NAD(P)H; anaerobic (argon).

B1: FMN-bound diaphorase (FMN-DI, DI, GsDI) (Geobacillus stearothermophilus) (protein)
chain: MTKVLYITAHPHDDTQSYSMAVGKAFIETYKQVHPDHEVIHLDLYKEYIPEIDVDVFSGWGKLRSGKSFEELSDEEKAKVGRMNELCEQFISADKYVFVTPMWNFSFPPVLKAYIDAVAVAGKTFKYTEQGPVGLLTDKKALHIQARGGFYSEGPAAEMEMGHRYLSVIMQFFGVPSFEGLFVEGHAAMPEKAEEIKANAIARAKDLAHTF
notes: full length from 636-bp DNA fragment, E. coli BL21 Star (DE3), plasmid pET20b-Gsdi, Ni-resin purified (C-terminal His tag implied by reverse primer)
Take B1: the Km (commonly the concentration of substrate that gives half-maximal velocity) was 699 ± 49 µM in series [1], 917 µM in series [2], 24 ± 3 µM in series [3] and 4.813 mM in series [4]. The kcat (commonly the number of substrate molecules converted per active site and unit of time at saturation) in series [1] was 1.93 ± 0.06 s⁻¹; in series [2], approximately 2.4 s⁻¹; in series [3], 1.64 ± 0.05 s⁻¹; in series [4], approximately 0.26 s⁻¹.
